Percent dimer data for 1 substance are collected here from publication PMC4380549.

For the test, the target named is FGFR3 TM-JM-YFP/mCherry (human). Description: FRET or BRET.

Regarding “FGFR3 TM-JM-YFP/mCherry (domain or fragment)”, the percent dimer stood at 100%.
